Laboratory results as given in the RNAGym collection of RNA variant scans (doi:10.7554/elife.80360).

B1: Hairpin Ribozyme (parent)
chain: GUCCUCUUUCACGUGCGCGUGAAAGAGAGAAGUGAACCAGAGAAACACACGUUGUGGUAUAUUACCUGGUA

Variants of: B1
Assay: self-cleavage, relative activity (ratio to wild type); higher = more cleavage; co-transcriptional

Going from GUCCUCUUUCGCGUGCGCGUGAAAGAGAGAAGUGAACCAGAGAAACACACGUUGUGGUAUAUUACCCGGUA [A11G U67C] to GUCCUCUUUCGCGUCCGCGUGAAAGAGAGAAGUGAACCAGAGAAACACACGUUGUGGUAUAUUACCUGGUA [A11G G15C], the self-cleavage rises from 0.214 to 0.859.

First: GUCCUCUUUCUCGUGCGCGUGAAAGAGAGAAGUGAACCACAGAAACACACGUUGUGGUAUAUUACCUGGUA [A11U G40C]
Second: GUCCUCUUUCUCGUGCGCGUGAAAGAGAGAAGUGAACCAAAGAAACACACGUUGUGGUAUAUUACCUGGUA [A11U G40A]
The self-cleavage of the first is lower: 0.178 for the first, 0.242 for the second.

Going from GUCCUCUUUCUCGUGCCCGUGAAAGAGAGAAGUGAACCAGAGAAACACACGUUGUGGUAUAUUACCUGGUA [A11U G17C] to GUCCUCUUUCGCGUGCGCCUGAAAGAGAGAAGUGAACCAGAGAAACACACGUUGUGGUAUAUUACCUGGUA [A11G G19C], the self-cleavage rises from 0.566 to 0.784.

Compared with GUCCUCUUUCGCGUGCGCGUGAAAGAGAGAAGUGAACCAGAGAAACACACGUUGUCGUAUAUUACCUGGUA [A11G G56C], GUCCUCUUUCGCGUGCGCGUGAAAGAGAGAAGUGAACCAGAGAAACACACGUUGUAGUAUAUUACCUGGUA [A11G G56A] is higher in self-cleavage: 0.128 for the first, 0.229 for the second.

Compared with GUCCUCUUUCGCGAGCGCGUGAAAGAGAGAAGUGAACCAGAGAAACACACGUUGUGGUAUAUUACCUGGUA [A11G U14A], GUCCUCUUUCGCGUGCGCGUGAAAGAGAGAAGUUAACCAGAGAAACACACGUUGUGGUAUAUUACCUGGUA [A11G G34U] is higher in self-cleavage: 0.916 for the first, 1.17 for the second.

Going from GUCCUCUUUCUCGUGCGCGUGAAAGAAAGAAGUGAACCAGAGAAACACACGUUGUGGUAUAUUACCUGGUA [A11U G27A] to GUCCUCUUUCGCGUGCGCGUGAAAGAGAGAAGUGAACCAGAGAAAGACACGUUGUGGUAUAUUACCUGGUA [A11G C46G], the self-cleavage falls from 0.406 to 0.0993.

Compared with GUCCUCUUUCGCGUGCGCGUGAAAGAGAGAAGUGAACCAGAGAAAAACACGUUGUGGUAUAUUACCUGGUA [A11G C46A], GUCCUCUUUCUCGUGCGCGUGAAAGAGAGGAGUGAACCAGAGAAACACACGUUGUGGUAUAUUACCUGGUA [A11U A30G] is higher in self-cleavage: 0.0804 for the first, 0.0913 for the second.

Going from GUCCUCUUUCUCGUGCGCGUCAAAGAGAGAAGUGAACCAGAGAAACACACGUUGUGGUAUAUUACCUGGUA [A11U G21C] to GUCCUCUUUCGCGUGCGCGUGAAAGAGAGAAGUGAACCAGAGAAACACACGUUCUGGUAUAUUACCUGGUA [A11G G54C], the self-cleavage falls from 0.549 to 0.297.

Compared with GUCCUCUUUCUCGUGCGCGUGAAAGAGUGAAGUGAACCAGAGAAACACACGUUGUGGUAUAUUACCUGGUA [A11U A28U], GUCCUCUUUCUCGUGCGCGUGAAAGAGAGAAGUGAACCGGAGAAACACACGUUGUGGUAUAUUACCUGGUA [A11U A39G] is lower in self-cleavage: 0.494 for the first, 0.342 for the second.

First: GUCCUCUUUCGCGUGCGCGUGAAAGAUAGAAGUGAACCAGAGAAACACACGUUGUGGUAUAUUACCUGGUA [A11G G27U]
Second: GUCCUCUUUCGCGUGCGCGUGAAAGAAAGAAGUGAACCAGAGAAACACACGUUGUGGUAUAUUACCUGGUA [A11G G27A]
The self-cleavage of the first is lower: 0.248 for the first, 0.353 for the second.

Compared with GUCCUCUUUCGCGUGCGCGUGAAAGAGAGAAGUGAACCAGAGAAACACACGUCGUGGUAUAUUACCUGGUA [A11G U53C], GUCCUCUUUCUCGUGCGCGUGAUAGAGAGAAGUGAACCAGAGAAACACACGUUGUGGUAUAUUACCUGGUA [A11U A23U] is lower in self-cleavage: 1.02 for the first, 0.728 for the second.

First: GUCCUCUUUCGCGUGCACGUGAAAGAGAGAAGUGAACCAGAGAAACACACGUUGUGGUAUAUUACCUGGUA [A11G G17A]
Second: GUCCUCUUUCGCGUGCGCGUCAAAGAGAGAAGUGAACCAGAGAAACACACGUUGUGGUAUAUUACCUGGUA [A11G G21C]
The self-cleavage of the first is higher: 1.01 for the first, 0.618 for the second.

Going from GUCCUCUUUCUCGUACGCGUGAAAGAGAGAAGUGAACCAGAGAAACACACGUUGUGGUAUAUUACCUGGUA [A11U G15A] to GUCCUCUUUCUCGUCCGCGUGAAAGAGAGAAGUGAACCAGAGAAACACACGUUGUGGUAUAUUACCUGGUA [A11U G15C], the self-cleavage rises from 0.849 to 0.85.

Going from GUCCUCUUUCUCGUGCGCGUGAAAGAGAGAAAUGAACCAGAGAAACACACGUUGUGGUAUAUUACCUGGUA [A11U G32A] to GUCCUCUUUCUCGUGCGCGUGCAAGAGAGAAGUGAACCAGAGAAACACACGUUGUGGUAUAUUACCUGGUA [A11U A22C], the self-cleavage rises from 0.165 to 0.363.

Compared with GUCCUCUUUCUCGUGCGCGUGUAAGAGAGAAGUGAACCAGAGAAACACACGUUGUGGUAUAUUACCUGGUA [A11U A22U], GUCCUCUUUCGCGUGCGCGUGAAAGAGAGAAGUGAACCAUAGAAACACACGUUGUGGUAUAUUACCUGGUA [A11G G40U] is lower in self-cleavage: 0.501 for the first, 0.149 for the second.

First: GUCCUCUUUCUCGUGCGCGUGAAAGAGAGAAGUGAACCAGAGAAACACACCUUGUGGUAUAUUACCUGGUA [A11U G51C]
Second: GUCCUCUUUCUCGUGCGCGUGAAAGAGAGAAGUGAACCAGAGAAUCACACGUUGUGGUAUAUUACCUGGUA [A11U A45U]
The self-cleavage of the first is higher: 0.706 for the first, 0.255 for the second.

Going from GUCCUCUUUCUGGUGCGCGUGAAAGAGAGAAGUGAACCAGAGAAACACACGUUGUGGUAUAUUACCUGGUA [A11U C12G] to GUCCUCUUUCUCGUGCGCGUGAAAGAGAGAAGUGAACCAGAGAAACACAGGUUGUGGUAUAUUACCUGGUA [A11U C50G], the self-cleavage falls from 0.74 to 0.258.

Compared with GUCCUCUUUCGCGUGCGCGUGAAAGAGAGAAGUGAACCAGAGAAACACACGUUGUGGUAUAAUACCUGGUA [A11G U62A], GUCCUCUUUCUCGUGCGCGUGAAAGAGAGAAGUGAACCAGAGAAACACACGUUGUGGUAUAUUACGUGGUA [A11U C66G] is lower in self-cleavage: 0.154 for the first, 0.0569 for the second.

First: GUCCUCUUUCGCUUGCGCGUGAAAGAGAGAAGUGAACCAGAGAAACACACGUUGUGGUAUAUUACCUGGUA [A11G G13U]
Second: GUCCUCUUUCGCCUGCGCGUGAAAGAGAGAAGUGAACCAGAGAAACACACGUUGUGGUAUAUUACCUGGUA [A11G G13C]
The self-cleavage of the first is higher: 0.662 for the first, 0.567 for the second.
